{"source": "patent US20250215403A1", "about": "“Compositions and Methods for Cardiac Tissue Regeneration” (Temple University - Of The Commonwealth System Of Higher …, priority 2022, published 2025)", "key": {"β-catenin": {"tested_on": "β-catenin", "assay": "β-catenin immunostaining in CM nucleus and cytoplasm", "format": "cell-based, rat", "settings": "NRVM; 48 hours after modRNA", "description": "(§1) Mice hearts were harvested, weighed, and fixed in 4% PFA/PBS overnight on shaker and then washed with PBS for 1 hour and incubated in 30% sucrose/PBS at 4° C. for 12-18 hours. Hearts were then fixed in OCT and frozen at −80° C. (Magadum A., et al., Circulation. 2020, 141 (15): 1249-1265). Transverse heart sections (6-8 μm) were made using a cryostat. Frozen sections were rehydrated in PBS for 5-10 min followed by permeabilization with PBS with 0.1% Triton™ X100 (PBST) for 7-8 min. Heart sections were then treated with 3% H2O2 for 5 min and washed (3×5 min) with PBST. The samples were then blocked with PBS+10% Donkey normal serum+0.1% Triton™ X100 (PBSST) for 1 hour at room temperature. Primary antibodies (see complete list of primary antibodies used for this Example in Table 2 below) diluted in PBST were added and incubated overnight at 4° C. […] For immunostaining with wheat germ agglutinin (WGA) for CM size quantification, images were captured at 40× magnification, and ImageJ was used to determine the area of each cell. Quantitative analyses involved counting of multiple fields from 5-8 mouse hearts per group, and 3-4 sections/heart (˜50 cells per field assessed, for a total ˜250 cells per sample). […] BrdU positive CMs were counted in multiple fields from three independent samples per group and 3 sections/heart. The total number of CMs counted was ˜1-1.5×10^3 CMs per section. […]"}, "[1]": {"tested_on": "serine synthesis pathway (SSP)", "assay": "Serine and glycine levels in mouse heart post-MI", "format": "in vivo", "settings": "two days post-MI; HPLC study; vs Luc modRNA"}, "cardiomyocytes (CM)": {"tested_on": "cardiomyocytes (CM)", "assay": "DNA damage response immunostaining (8-OHG, pATM) in CMs post-MI", "format": "in vivo, mouse", "settings": "two days post-MI; compared to Luc", "description": "as §1"}, "GSK3β": {"tested_on": "GSK3β", "assay": "Western blot of Ser9 phosphorylation of GSK3β in NRVM", "format": "cell-based, rat", "settings": "compared to Luc modRNA", "description": "Total protein was isolated from the respective cells or tissues at given time points. In brief, equal amounts of protein were resolved by SDS-PAG Electrophoresis system in 4%-15% Mini-PROTEAN TGX stain-free gels (Bio-Rad) and blotted onto nitrocellulose membranes (Bio-Rad). The membranes were blocked in Intercept® (TBS) blocking buffer (LI-COR) diluted 1:1 with PBS for 1 hour at room temperature and washed with PBST (1% Tween® 20, pH 7.4) for 10 min. Primary antibodies diluted in blocking buffer were added and incubated overnight at 4° C. Anti-PSAT1 (1:1,000, Invitrogen, #PA5-22124), anti-Flotillin 1 (1:1,000, Cell Signaling, #3253), anti-pSer9GSK3B (1:1,000, Cell Signaling, #9336), anti-GSK3B (1:1,000, Cell Signaling, #9315), and anti-β-actin (1:1000, Santa Cruz, #sc-47778) antibodies were used. The next day, membranes were washed with PBST (3×10 min). Anti-rabbit and anti-mouse IRDye 800CW secondary antibodies (LI-COR) were applied for 1 hr at room temperature. The membranes were washed with PBST (3×10 min) and antigen or antibody complexes were visualized and quantified using Odyssey Fc Imaging System (LI-COR Biosciences, model number 2800)."}, "PSAT1": {"tested_on": "PSAT1", "assay": "PSAT1 protein expression in NRVM after modRNA transfection", "format": "cell-based, rat", "settings": "in vitro modRNA transfection"}}, "data": [{"molecule": "PSAT1 modRNA: modified mRNA with N1-methylpseudouridine, transcribed in vitro, encoding phosphoserine aminotransferase 1 (ORF SEQ ID NO: 1, RNA SEQ ID NO: 2) (nucleic acid, N1-methylpseudouridine) AUGGAAGCCACCAAGCAAGUGGUUAACUUUGGGCCCGGGCCUGCCAAGCUGCCACACUCGGUAUUGUUGGAGAUCCAGAAGCAGCUACUAGACUACAGAGGACUCGGCAUCAGUGUGCUCGAAAUGAGUCACAGGUCAUCAGAUUUUGCCAAGAUUAUUGGCAAUACAGAGAAUCUUGUGAGGGAAUUGCUAGCUGUUCCCAACAACUACAAGGUGAUCUUUGUACAAGGAGGUGGGUCUGGCCAGUUCAGUGCUGUCCCCUUAAAUCUGAUUGGCCUGAAAGCUGGAAGGAGUGCUGACUACGUGGUGACCGGAGCUUGGUCAGCUAAGGCUGCGGAAGAAGCCAAGAAGUUUGGAACGGUGAACAUUGUCCACCCUAAACUUGGAAGUUACACAAAAAUUCCAGACCCAAGCACCUGGAACCUCAACCCGGACGCCUCCUAUGUAUACUUCUGUGCAAACGAGACUGUGCACGGGGUGGAGUUUGACUUCGUACCUGACGUCAAGGGAGCGGUGCUGGUCUGUGACAUGUCCUCAAACUUCUUAUCCAGGCCGGUGGAUGUUUCCAAGUUUGGUGUGAUUUUCGCUGGUGCUCAGAAGAAUGUUGGCUCUGCCGGGGUGACGGUGGUGAUUGUCCGGGAUGACCUGCUGGGGUUCUCGCUCAGAGAGUGCCCAUCAGUCCUUGACUACAAAGUGCAGGCUGGGAACAACUCUUUGUAUAACACACCUCCGUGCUUCAGCAUCUACGUCAUGGGCAUGGUCCUGGAAUGGAUCAAGAACAACGGCGGGGCCGCAGCCAUGGAGAAGCUCAGCUCCAUCAAAUCCCAAAUGAUUUAUGAGAUCAUUGAUAAUUCUCAAGGAUUUUAUGUAUGCCCAGUGGAGCGCCAGAAUAGAAGCAGGAUGAACAUCCCAUUUCGCAUUGGCAACGCCAAAGGAGACGAAGCUUUGGAAAAGCGGUUUCUUGACAAGGCGGUAGAACUCAACAUGAUCUCCUUGAAGGGGCACAGGUCAGUGGGAGGCAUUCGUGCCUCUCUGUAUAACGCUGUCACAACCGAAGACGUUGAGAAGCUGGCGGCCUUCAUGAAGAAUUUCUUGGAGAUGCAUCAGCUGUGA", "values": [{"measurement": "stabilized β-catenin localisation to CM nuclei", "setting": "β-catenin", "result": "translocated"}, {"measurement": "β-catenin stabilization", "setting": "β-catenin", "result": "significantly induced"}, {"measurement": "glycine levels in heart", "setting": "[1]", "result": "increase"}, {"measurement": "serine levels in heart", "setting": "[1]", "result": "increase"}, {"measurement": "staining for nuclear 8-OHG (nuclear foci per CMs)", "setting": "cardiomyocytes (CM)", "result": "significantly lower"}, {"measurement": "staining for pATM (nuclear foci per CMs)", "setting": "cardiomyocytes (CM)", "result": "significantly lower"}, {"measurement": "phosphorylation of GSK3β at Ser9", "setting": "GSK3β", "result": "induces"}, {"measurement": "PSAT1 protein expression in NRVM (onset and duration)", "setting": "PSAT1", "result": "achieved within hours of administration and lasted up to several days"}]}]}
